Results as given in patent US20160375113A1, “COMPOSITIONS COMPRISING ENO1 AND THEIR USE IN METHODS OF TREATING OBESITY OR OVERWEIGHT AND REDUCING WEIGHT GAIN” (Berg LLC, priority 2015, published 2016).
“Also recorded” adds a separate entry of the source.

Tests used:
[1] = Storage stability by ENO1 Human Activity Assay Kit (PK/LDH, NADH consumption); format: physicochemical; conditions: 500 ng Eno1; for activity at end of study (Week 10), −20° C.: kept at −20° C.; for activity retained at end of study (Week 10), −80° C.: kept at −80° C.; for Eno1 activity after storage, week 3, 4° C., 22° C., and 37° C.: stored at 4° C.; for Eno1 activity after storage, week 3, 4° C., 22° C., and 37° C. / Eno1 activity after storage, week 3, −80° C. and −20° C.: by week 3; for Eno1 activity after storage, week 3, −80° C. and −20° C.: stored at −80° C. and −20° C.; for Eno1 activity after storage, first week: stored at −80° C., −20° C., 4° C.; for Eno1 activity after storage, week 3, 4° C., 22° C., and 37° C. / Eno1 activity after storage, first week: 22° C., and 37° C.
Experimental: The stability of the Eno1-dendrimer-SMTP complex was evaluated at different temperatures, and stability was determined over a 3-4 month time period by measuring Eno1 activity using a commercially available Eno1 assay. The selected conjugates were also evaluated using biophysical techniques, including Dynamic Light Scattering (DLS) and UV-Vis spectroscopy to confirm complexation between the dendrimer-peptide conjugate and Eno1.
The stability of the Enolase-I/G5-dendrimer/SMTP conjugates was measured by using the ENO1 Human Activity Assay Kit (ABCAM, Cambridge, Mass.; Catalogue No. ab117994). Briefly, the sample was added to a microplate containing a monoclonal mouse antibody specific to Eno1. The microplate was incubated at room temperature for 2 hours, and Eno1 was immunocaptured within the wells of the microplate. The wells of the microplate were washed to remove all other enzymes. Eno1 activity was determined by following the consumption of NADH in an assay buffer that included pyruvate kinase (PK), lactate dehydrogenase (LDH) and the required substrates 2-phospho-D-glycerate (2PG) and NADH. Eno1 converts 2PG to phosphoenolpyruvate, which is converted to pyruvate by PK. Pyruvate is converted to lactate by LDH, and this reaction requires NADH. The consumption of NADH was monitored as decrease of absorbance at 340 nm.
The activity of Enolase-I/G5-dendrimer/SMTP conjugates that were stored at different temperatures at different time points was measured using the assay described above. A concentration of 500 ng of Eno1 was selected for testing because this concentration falls in the middle of the dynamic range of the assay kit. Two different sets of solutions were prepared. One set (control) contained Eno1 alone (i.e. unconjugated Eno1) and the other set contained Eno1/G5-dendrimer/SMTP mixtures. These mixtures were then kept at −80° C., −20° C., 4° C., 22° C., and 37° C. […] At the end of the study (Week 10), The Eno1/G5-dendrimer/SMTP solution that was kept at −80° C. retained about 90% of its activity whereas Eno1 alone was only 35% active. On the other hand, Eno1/G5-dendrimer/SMTP solution that was kept at −20° C. was about 24% active, whereas Eno1 alone stored at −20° C. was not active.

[2] = Tissue distribution of detectably labeled Eno1 PAMAM dendrimer complexes in mice (LI-COR imaging); format: in vivo
Experimental: A detectably labeled PAMAM dendrimer complex containing Eno1 was prepared using the method provided in the prior example and analyzed for tissue distribution in mice after subcutaneous injection. Specifically, for 72 hours prior to injection mice were fed alfalfa free food to limit background fluorescence. Mice were injected with 3 μg ENO1/mouse subcutaneously 150 μl total (75 μl left laterally, 75 μl right laterally). The molar ratio of dendrimer to Eno1 in the complex was 5:1. One, 4, and 24 hours post injection animals were sacrificed, skinned, and organs removed in preparation for LI-COR imaging.
A follow-up study was performed using the skeletal muscle targeted Eno1-PAMAM dendrimer complex containing the SMTP “ASSLNIA”. A detectably labeled PAMAM dendrimer complex containing Eno1 and SMTP ((Enolase-Vivo Tag680xl)-(G5-SMTP)) was prepared using the method provided in the prior example. The molar ratio of dendrimer to SMTP in the complex was 1:1. The experiments were performed essentially as described above. The skeletal muscle targeted Eno1-PAMAM dendrimer complex was administered at a dose of 50 μg/kg body weight. These images in FIG. 6B were taken after 1 hr of injection. Organs, other than the heart, were retained in the body.

db/db mice = assay: Body weight / weight gain in db/db mice treated with rosiglitazone and muscle targeted Eno1/dendrimer complex; format: in vivo; conditions: Eno1 400 μg/kg/day subcutaneous added to rosiglitazone 20 mg/kg/day
Experimental: A muscle targeted Eno1/dendrimer complex was generated to analyze its efficacy in reducing weight gain. The dendrimer complex comprised human Eno1, transcript variant 1 protein (SEQ ID NO: 2) which was non-covalently linked to a G5-PAMAM dendrimer/muscle targeting peptide (MTP) (ASSLNIA; SEQ ID NO: 7) conjugate. Stock solutions of Eno1 were prepared in buffer and the protein solution was mixed with the G5 dendrimer-MTP conjugate.
Lean mice and male obese and diabetic db/db mice (male BKS.Cg-m+/+Lepr^db/J) mice were obtained from a commercial vendor. All mice were housed 2-3 per cage at 22° C. on a 12:12 hr day-night cycle and were acclimated for 3 weeks at animal facility on a standard chow diet. At 8 weeks of age, 200 μg/kg body weight Eno1 was administered twice daily (at 9:00 a.m. and 5:00 p.m., 400 μg/kg daily dose) by subcutaneous injection, and 20 mg/kg body weight rosiglitazone was administered once daily by gavage at 9:00 a.m. Lean mice and db/db mice also received subcutaneous injections of saline as a control. The treatment groups were as follows: • 1. lean mice with saline injection (control) • 2. db/db mice with saline injection (control) • 3. db/db mice with rosiglitazone (20 mg/kg, once daily) • 4. db/db mice with rosiglitazone (20 mg/kg, once daily)+Eno1 (200 μg/kg, twice daily) […]

Substance	activity at end of study (Week 10), −20° C. [1]	activity retained at end of study (Week 10), −80° C. [1]	Eno1 activity after storage, week 3, 4° C., 22° C., and 37° C. [1]	Eno1 activity after storage, week 3, −80° C. and −20° C. [1]	Eno1 activity after storage, first week [1]	further results
Eno1 alone: Eno1 alone (i.e. unconjugated Eno1), control in the stability study	not active	35%	no activity	significant stability	active	
Eno1-PAMAM dendrimer: detectably labeled PAMAM dendrimer complex containing Eno1, molar ratio of dendrimer to Eno1 5:1, no targeting peptide						tissue distribution, 1 hour post injection ([2]; subcutaneous, 3 μg ENO1/mouse, dendrimer to Eno1 5:1, 1 hour (FIG. 6A)): general systemic distribution; tissue distribution, 4 hours post injection ([2]; subcutaneous, 3 μg ENO1/mouse, dendrimer to Eno1 5:1, 4 hours (FIG. 6A)): significant accumulation of the Eno1-PAMAM dendrimer was observed in liver, kidney, and subcutaneous fat, as well as in the upper torso; tissue distribution, 24 hours post injection ([2]; subcutaneous, 3 μg ENO1/mouse, dendrimer to Eno1 5:1, 24 hours (FIG. 6A)): substantially cleared and observed substantially in the liver and kidney
Eno1/G5-dendrimer/SMTP: Eno1 complexed with Generation 5 PAMAM dendrimers decorated with Skeletal Muscle Targeting Peptides (SMTPs)	about 24%	about 90%	no activity	significant stability	active; also recorded: slightly higher activity than Eno1 alone	
Eno1: In Example 1: human Eno1 transcript variant 1 protein (SEQ ID NO: 2) non-covalently linked to G5-PAMAM dendrimer/muscle targeting peptide (ASSLNIA) conjugate						effect on rosiglitazone-induced weight gain (db/db mice): attenuates rosiglitazone-induced weight gain; also recorded: attenuates rosiglitazone induced weight gain; also recorded: attenuated
muscle-targeted Eno1 dendrimer complex: detectably labeled PAMAM dendrimer complex containing Eno1 and SMTP ASSLNIA, dendrimer to SMTP 1:1						tissue distribution of muscle targeted complex, 1 hr after injection ([2]; 50 μg/kg body weight, dendrimer to SMTP 1:1, 1 hr (FIG. 6B)): targeted to skeletal muscle, not heart
